For assay [1], the target named is T1, human BMP6 (Bone Morphogenetic Protein 6) (human, UniProt P22004 382-513, limits assumed).
T1 sequence (looked up): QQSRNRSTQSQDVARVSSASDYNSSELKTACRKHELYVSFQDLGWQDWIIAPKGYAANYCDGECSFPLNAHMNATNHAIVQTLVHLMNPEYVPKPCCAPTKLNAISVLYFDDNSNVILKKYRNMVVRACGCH
Nature of the assay: cell-based or functional assay.

Assay [2] has as its target T2, human BMP7 (Bone Morphogenetic Protein 7) (human, UniProt P18075 293-431).
T2 sequence (looked up): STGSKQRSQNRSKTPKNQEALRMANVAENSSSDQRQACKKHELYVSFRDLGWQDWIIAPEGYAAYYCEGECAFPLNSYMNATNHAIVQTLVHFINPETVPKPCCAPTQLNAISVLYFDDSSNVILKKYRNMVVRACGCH
Kind of assay: cell-based or functional assay.

The target of assay [3] is human BMP2 (Bone Morphogenetic Protein 2) (human, UniProt P12643 283-396). Kind of assay: cell-based or functional assay.
The target in assay [4] is T3, human BMP5 (Bone Morphogenetic Protein 5) (human, UniProt P22003 317-454, limits assumed).
T3 sequence (looked up): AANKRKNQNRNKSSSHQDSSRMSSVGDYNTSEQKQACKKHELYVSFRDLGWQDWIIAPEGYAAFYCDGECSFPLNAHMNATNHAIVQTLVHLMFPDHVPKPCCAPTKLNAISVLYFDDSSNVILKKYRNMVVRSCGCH
Kind of assay: cell-based or functional assay.

Assay [5] addresses T1, human BMP6 (Bone Morphogenetic Protein …). Kind of assay: cell-based or functional assay. The source holds these as a separate data set.
Assay [6] has the same target. Nature of the assay: method not stated (Table 8, KD(nM) BMP6).
Assay [7] shares this target. Nature of the assay: cell-based or functional assay. The source holds these as a separate data set.
In assay [8] the target is human BMP7 (Bone Morphogenetic Protein 7) (human) (UniProt P18075). Nature of the assay: cell-based or functional assay.
The next assay has as its target T4, hBaffR (human, UniProt Q96RJ3).
T4 construct: Unrelated control antigen no
T4 sequence (control antigen, looked up): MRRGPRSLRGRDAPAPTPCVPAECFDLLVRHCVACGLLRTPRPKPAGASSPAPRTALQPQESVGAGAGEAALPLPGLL
Kind of assay: ELISA binding assay, fluorescence signal intensity (anti-Fab-AP detection); antibody concentration not given.

Assay [9] addresses T3, human BMP5 (Bone Morphogenetic Protein …). Described as above.
Another assay concerns the target T5, BSA (bovine, UniProt P02769).
T5 construct: Unrelated control antigen no
Described as above.

A further assay deals with T6, Mouse BMP6 (mouse, UniProt P20722).
T6 construct: Antigen no
T6 sequence (ligand, looked up): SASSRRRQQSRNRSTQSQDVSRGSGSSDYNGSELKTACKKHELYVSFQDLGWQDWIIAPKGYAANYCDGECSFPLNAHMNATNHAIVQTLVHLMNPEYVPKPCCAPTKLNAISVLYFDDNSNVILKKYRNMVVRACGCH
Nature of the assay: ELISA binding assay, fluorescence signal intensity (anti-Fab-AP detection); one bar per antigen, antibody concentration not given.

The target of assay [10] is human BMP7 (Bone Morphogenetic Protein 7) (human) (UniProt P18075). Nature of the assay: ELISA binding assay. A general note: ELISA stands for enzyme-linked immunosorbent assay.

A value given as a limit tells only on which side of the number the result lay.

Chain of human BMP2 (Bone Morphogenetic Protein 2) (P12643 283-396 limits assumed): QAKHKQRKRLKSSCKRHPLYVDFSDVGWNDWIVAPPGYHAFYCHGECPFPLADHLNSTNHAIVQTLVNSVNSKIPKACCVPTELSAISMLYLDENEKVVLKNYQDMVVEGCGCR
T5 sequence (P02769 25-607 limits assumed): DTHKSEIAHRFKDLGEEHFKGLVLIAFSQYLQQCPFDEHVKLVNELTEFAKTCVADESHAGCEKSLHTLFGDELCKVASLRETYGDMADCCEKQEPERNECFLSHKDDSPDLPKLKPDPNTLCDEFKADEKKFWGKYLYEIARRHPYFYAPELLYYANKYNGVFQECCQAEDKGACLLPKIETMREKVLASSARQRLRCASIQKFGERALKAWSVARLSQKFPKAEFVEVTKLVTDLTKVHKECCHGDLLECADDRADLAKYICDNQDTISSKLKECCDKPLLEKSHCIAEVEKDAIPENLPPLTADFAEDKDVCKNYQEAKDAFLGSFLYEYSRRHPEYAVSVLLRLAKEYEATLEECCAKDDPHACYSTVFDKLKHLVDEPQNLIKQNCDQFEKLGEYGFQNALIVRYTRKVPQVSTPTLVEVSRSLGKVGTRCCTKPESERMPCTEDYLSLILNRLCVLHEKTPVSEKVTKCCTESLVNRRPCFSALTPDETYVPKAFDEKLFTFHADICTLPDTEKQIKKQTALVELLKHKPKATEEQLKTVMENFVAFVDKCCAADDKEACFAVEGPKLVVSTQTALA

B1: Antibody 5 (antibody, human IgG1, lambda, V domains shown)
VH: QVQLVESGGGLVKPGGSLRLSCAASGFTFSSYVVHWVRQAPGKGLEWVGRIKRESSSYTTMYAAPVKGRFTISRDDSKNTLYLQMNSLKTEDTAVYYCARVERSKSGFDNWGQGTLVTVSS
VL: QSVLTQPPSVSGAPGQRVTISCTGSSSNIGAGYSVHWYQQLPGTAPKLLIYGQSERPSGVPDRFSGSKSGTSASLAITGLQAEDEADYYCQSWDSSQTLVVFGGGTKLTVLG
notes: also called Ab 5
For B1, the “IC50 (read off the curve), BMP reporter gene assay [panel Ab5]” value in assay [1] was roughly 0.5 nM. Also, the “selectivity window against BMP6, BMP reporter gene assay” value (from here on “selectivity window against BMP6”) in assay [2], in [3] and in [4] was no less than 500 fold in each case. In addition, the “IC50, BMP reporter (BRE-luc) activity in Hep3B” value (from here on “IC50, BMP reporter”) in assay [5] turned out to be 0.4 nM. The Kd in assay [6] is 0.1 nM. In assay [7], the “IC50(ug/ml) BMP6 reporter” value was found to be 0.06 µg/mL.

B2: Antibody 6 (antibody, human IgG1, lambda, V domains shown)
VH: QVQLVESGGGLVKPGGSLRLSCAASGFTFSSYVVHWVRQAPGKGLEWVGRTRHSDMGYATSYAAPVKGRFTISRDDSKNTLYLQMNSLKTEDTAVYYCARVERSKSGFDNWGQGTLVTVSS
VL: QSVLTQPPSVSGAPGQRVTISCTGSSSNIGAGYSVHWYQQLPGTAPKLLIYGQSERPSGVPDRFSGSKSGTSASLAITGLQAEDEADYYCQSWDSSQTLVVFGGGTKLTVLG
notes: also called Ab 6
Regarding B2, in assay [1], the “IC50 (read off the curve), BMP reporter gene assay [panel Ab6]” value is roughly 0.5 nM. Further, the “selectivity window against BMP6” value in assay [2], in assay [3] and in [4] was no less than 500 fold in each case. Further, the “IC50, BMP reporter” value in assay [5] was determined as 0.4 nM. This molecule also displayed a Kd in assay [6] of less than 0.1 nM. The “IC50(ug/ml) BMP6 reporter” value in assay [7] is 0.08 µg/mL.

B3: Antibody 7 (antibody, human IgG1, lambda, V domains shown)
VH: QVQLVESGGGLVKPGGSLRLSCAASGFTFSSYVVHWVRQAPGKGLEWVGRIRLETHGYAAEYAASVKGRFTISRDDSKNTLYLQMNSLKTEDTAVYYCARVERSKSGFDNWGQGTLVTVSS
VL: QSVLTQPPSVSGAPGQRVTISCTGSSSNIGAGYSVHWYQQLPGTAPKLLIYGQSERPSGVPDRFSGSKSGTSASLAITGLQAEDEADYYCQSWDSSQTLVVFGGGTKLTVLG
notes: also called Ab 7; Ab7
As to B3, in [1], the “IC50 (read off the curve), BMP reporter gene assay [panel Ab7]” value was roughly 0.5 nM. Also, the “selectivity window against BMP6” value in assay [3] is no less than 500 fold; in assay [4], no less than 500 fold; in assay [8] it was greater than 500 fold. Moreover, in [5], the “IC50, BMP reporter” value is 0.4 nM. For the same molecule, the Kd in [6] was determined as 0.1 nM. Moreover, the “IC50(ug/ml) BMP6 reporter” value in assay [7] was found to be 0.07 µg/mL. The binding result with hBaffR is given as “no binding”; in assay [9], “no binding”; with BSA, “no binding”; in the assay with Mouse BMP6, “binds”. In addition, in assay [10], the selectivity, affinity to human BMP6 over affinity to human BMP7 is greater than 500 fold.

Usually Kd stands for the constant that tells how readily two partners part at equilibrium. Read a low Kd as tighter binding.

These data come from patent US20210130428A1 (Novartis, published 2021).
